Data reported in the nanobody polyreactivity screen of Harvey et al. (2022).

Assay: yeast display, Sf9 membrane polyspecificity reagent, FACS + sequencing; frameworks hold sequencing errors
Procedure, shortened: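 A nanobody's polyreactivity label depends on the gate it was sorted from. Yeast display cells were stained with 10% biotinylated, detergent-solubilized Sf9 membrane reagent for 1 hour at 4 °C, enriched on streptavidin microbeads and sorted by FACS. The low and high (top ~1%) gates were set on anti-HA fluorescence for expression and streptavidin fluorescence for reagent binding.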

Q: Which “polyreactivity (PSR sort gate)” value does the source give for “QVQLVESGGGLVQAGGSLRLSCAASGSTFVSNVMGWYRQAPGKERELVAAITRGGSTKYADSVKGRFTISRDNAKNSVYLQMNSLKPEDTAVYYCAKRLYTRPGWYDYWGQGTQVTVSS” here?
A: high polyreactivity

Q: Which “polyreactivity (PSR sort gate)” value does the source give for “QVQLVESGGGLVQAGGSLRLSCAASGSTFVSYAMGWYRQAPGKERDFVAAITWSGGSTYYADSVKGRFTISRDNAKNTVYLQMNSLKPEDTAVYYCNARTGRSPTGFRYWGQGTQVTVSS” here?
A: high polyreactivity

Q: Which “polyreactivity (PSR sort gate)” value does the source give for “QVQLVESGGGLVQAGGSLRLSCAASGSTFVSYAMGWYRQAPGKERELVAAISFSDDSTYYADSVKGRFTISRDNAKNTVYFQMHSLKPEDTAVYYCAAASDSYVRVLEGFTFDYWGQGTQVTVSS” here?
A: low polyreactivity

Q: Which “polyreactivity (PSR sort gate)” value does the source give for “QVQLVESGGGLVQAGGSLRLSCAASGSTFVTNAMGWYRKAPGKERELVAAIRWSGGNTYYADSVKGRFTISRDNAKNTVYLQMNSLKPEDTAVYYCAAKKHLLPSYRGIRYYYWGQGTQVTVSS” here?
A: high polyreactivity

Q: With “QVQLVESGGGLVQAGGSLRLSCAASGSTFVTNAMGWYRQAPGKEREFVAAISNSSGSTYYADSVKGRFTISRDNEKNTVYLQMNSLKPEDTAVYYCNATPDDWLQEDYWGQGTQVTVSS” as the sequence, how does the “polyreactivity (PSR sort gate)” value read?
A: low polyreactivity

Q: For “QVQLVESGGGLVQAGGSLRLSCAASGSTFVTYAMGRYRQAPGTERELVAAISRRGGSTYYADSVKGRFTISRDNAKYTVYLQLNSLKPVDTAFYYCAAVQGSYSRDGADDYWGQGTQVTVSS”, which “polyreactivity (PSR sort gate)” value is on record?
A: high polyreactivity

Q: Which “polyreactivity (PSR sort gate)” value does the source give for “QVQLVESGGGLVQAGGSLRLSCAASGSTFVVNAMGWYRQAPGKERELVAAIAGGGSTNYADSVKGRFTISRDNAKNTVYLQMNRLKPEDTAVYYCAKDLTQSYEYDYWGQGTQVTVSS” here?
A: low polyreactivity

Q: With “QVQLVESGGGLVQAGGSLRLSCAASGSTFVVNAMGWYRQAPGKERELVAAISWSGASTYYADSVKGRFTISRDNAKNTVYLQMKSLIQEDTAVYYCAADYSHYFYYYPSFVKFDYWGQGTQVTVSS” as the sequence, how does the “polyreactivity (PSR sort gate)” value read?
A: high polyreactivity

Q: With “QVQLVESGGGLVQAGGSLRLSCAASGSTFVVNAMGWYRQAPGKERELVAAITQSGGSTFYADSVKGRFTISRDNAKNTVYLQMNSLKPEDTAVYYRGQGTQVTVSS” as the sequence, how does the “polyreactivity (PSR sort gate)” value read?
A: low polyreactivity

Q: For “QVQLVESGGGLVQAGGSLRLSCAASGSTFVVYAMGWYRQAPGKERELVAAISSSGGSTYYADSVKGRFTISRDNAKNTVYLQMNSLKPEDTAVYYCAAGSRFVSSRLYYWGQGTQVTVSS”, which “polyreactivity (PSR sort gate)” value is on record?
A: high polyreactivity

Q: Which “polyreactivity (PSR sort gate)” value does the source give for “QVQLVESGGGLVQAGGSLRLSCAASGSTFVVYAMGWYRQAPGKERELVAAITGSGGSTYYADSVKGRFTISRDNAKNTVYLQMNSLKPEDTAVYYCAADLYFYVISWGYGFYYWGQGTQVTVSS” here?
A: low polyreactivity

Q: With “QVQLVESGGGLVQAGGSLRLSCAASGSTFVVYDMGWDRQAPGKERELVAAITWSGGSTYYADSVKGRFTISRDNAKNTVYLQINSLKPEDTAVYYCNKVTWHQGHDYLGQGTQVTVSS” as the sequence, how does the “polyreactivity (PSR sort gate)” value read?
A: low polyreactivity

Q: With “QVQLVESGGGLVQAGGSLRLSCAASGSTFVWYAMGWYRQAPGKEREFVATISWSDGSTYYADSVKGRFTISRDNAKNTVYLQKNSLKPEDTAVYYCATDVDRFFTYKYDYWGQGTQVTVSS” as the sequence, how does the “polyreactivity (PSR sort gate)” value read?
A: low polyreactivity

Q: With “QVQLVESGGGLVQAGGSLRLSCAASGSTFVWYAMGWYRQAPGKESELVAVIDWSGGSTSYADSVKGRFTISRDNAKNTVYLQMNSLKPEDTAVYYCAAQLGVISRGNYWGQGTQVTVSS” as the sequence, how does the “polyreactivity (PSR sort gate)” value read?
A: low polyreactivity

Q: With “QVQLVESGGGLVQAGGSLRLSCAASGSTFVWYAMGWYRQEPGKERELVAAINFGGTTYYADSVNGRFTISRDNAKNTVYLQMNSLKTEDTAVYYCATEYDYGSWYPDGWGIFDYWGQGTQVTVSS” as the sequence, how does the “polyreactivity (PSR sort gate)” value read?
A: low polyreactivity

Q: For “QVQLVESGGGLVQAGGSLRLSCAASGSTFVWYGMGWYRQQPGNQREFVAAIYTSGGRTYYADSVKGRFTISRDNAKITVYLQMNSLKPEDTALYYCDTRPYFTYRWYDYWGQGTQVTVSS”, which “polyreactivity (PSR sort gate)” value is on record?
A: high polyreactivity

Q: For “QVQLVESGGGLVQAGGSLRLSCAASGSTFVWYVMGWYRQAPGNERELVAAISRSGGTTFYADSVKGRFTISRANAKNTVYLQMNSLKPEDTAVYYCAAEDVAYRPGYDYWGQGTQVTVSS”, which “polyreactivity (PSR sort gate)” value is on record?
A: high polyreactivity

Q: With “QVQLVESGGGLVQAGGSLRLSCAASGSTFVYMGWYRQAPGKEREFVAAITWSGGSTYYADSVKGRFTISRDNAKNTVYLQMNSLKPEDTAVNYCNAVSVIPGWARYYSWGQGTQVSVSS” as the sequence, how does the “polyreactivity (PSR sort gate)” value read?
A: low polyreactivity

Q: With “QVQLVESGGGLVQAGGSLRLSCAASGSTFVYMGWYRQAPGKEREFVAAITWSGGSTYYADSVKGRFTISRDNAKNTVYLQMNSLKPEDTAVYYCNAVSDIPGWARYYYWGQGTQVTVSS” as the sequence, how does the “polyreactivity (PSR sort gate)” value read?
A: low polyreactivity

Q: With “QVQLVESGGGLVQAGGSLRLSCAASGSTFVYNAMGWYRQAPGKERELVAAISSGGSTYYADSVKGRFTISRDNAKNTVYLQMNSLKPEDTAVYYCNARGSWRRDKYGTYYRYDYWGQGTQVTVSS” as the sequence, how does the “polyreactivity (PSR sort gate)” value read?
A: high polyreactivity

Q: With “QVQLVESGGGLVQAGGSLRLSCAASGSTFVYNAMGWYRQAPGKERELVAAISSRGGGTYYADSVKGRFTISRDNAKNSVYLQMYSLKPEDTAVYYCNTLPYTHGSNDYWGQGTQVTVSS” as the sequence, how does the “polyreactivity (PSR sort gate)” value read?
A: high polyreactivity

Q: For “QVQLVESGGGLVQAGGSLRLSCAASGSTFVYNAMGWYRQAPGKERELVAAITRRGGGTYYADSVKGRFTISRDNAKNTVYLQMNSLKPEDTAVYYCAADSRGWSLDGDYWGQGTQVTVSS”, which “polyreactivity (PSR sort gate)” value is on record?
A: low polyreactivity

Q: For “QVQLVESGGGLVQAGGSLRLSCAASGSTFVYNAMGWYRQAPGKERELVAGIRSSGDRTYYADSVKGRFTISRDNGKNTVYLQMNSLKPEDTAVYYCAAYLGRDPWFSRQGYGYWGQGTQVTVSS”, which “polyreactivity (PSR sort gate)” value is on record?
A: high polyreactivity

Q: Which “polyreactivity (PSR sort gate)” value does the source give for “QVQLVESGGGLVQAGGSLRLSCAASGSTFVYNDMGWYRQAPGKEGELVAGITTSGGSTYYADSVKGRFTISRDNAKNTVYLQINSLKPEDTAVYYCAARAFSAWLEMDYWGQGTQVTVSS” here?
A: low polyreactivity

Q: For “QVQLVESGGGLVQAGGSLRLSCAASGSTFVYNDMGWYRQAPGKERELVAVITSGGNTYYADSVKGRFTISRDNAKNTVYLQMNSLKPEDTAVYYCATRWYRFYPSDYWGQGTQVTVSS”, which “polyreactivity (PSR sort gate)” value is on record?
A: low polyreactivity

Q: For “QVQLVESGGGLVQAGGSLRLSCAASGSTFVYYAMGWYRPAPGKERELVAAISKRGGSTYYADSVKGRFTISRDNAKNTVYLQMNSLKPEDTAVYHCAADQARGRYTLDYWGQGTQVTVSS”, which “polyreactivity (PSR sort gate)” value is on record?
A: high polyreactivity

Q: Which “polyreactivity (PSR sort gate)” value does the source give for “QVQLVESGGGLVQAGGSLRLSCAASGSTFVYYAMGWYRQAPGKEREFVAAISTNGGSTYYADSVKGRYTISRDNAKNTVYLQMNSLKPEDTAVYYCAARWYWGQGTQGTVSS” here?
A: high polyreactivity

Q: With “QVQLVESGGGLVQAGGSLRLSCAASGSTFVYYAMGWYRQAPGKEREFVATIYRGDNTNYADSVKGRFTISRDNAKNTVYLQMNSLKPEDTAVYYCAADEPKWDLGGGTYLRDYWGLGTQVTVSS” as the sequence, how does the “polyreactivity (PSR sort gate)” value read?
A: low polyreactivity

Q: For “QVQLVESGGGLVQAGGSLRLSCAASGSTFVYYAMGWYRQAPGKERELVAAIRNGDGTNYADSVKGRFTISRDNAKNTVYLQMNSLKPEDTAVYYCAAPQGEYFYVYEFDYWGQGTQVTVSS”, which “polyreactivity (PSR sort gate)” value is on record?
A: low polyreactivity

Q: For “QVQLVESGGGLVQAGGSLRLSCAASGSTFVYYAMGWYRQAPGKERELVAAISTSAGSTYYADSVKGRFTISRDNAKNTVYLQMNSLKPEDTAVYYCAAGRYYRGYYWGQGTQVTVSS”, which “polyreactivity (PSR sort gate)” value is on record?
A: high polyreactivity
